Experiment [1] deals with metritis causing bacteria. Briefly: Agar well zone of inhibition on bacteria cultured from metritis discharge. It is filed as cell-based, bacteria from the discharge of a cow diagnosed with metritis. Conditions: 24 hour diffusion at 37° C. As to the method: A cow that was diagnosed with metritis, as evidenced by elevated temperature, elevated total leukocyte count, raised tails, and foul smelling discharge, had the discharge cultured onto blood agar plates. Bacteria colonies with different morphology from the metritis discharge that grew were selected and placed into 20 ml liquid nutrient broth in culture tubes at a defined amount and incubated overnight at 37° C. The bacteria in the liquid nutrient broth was then used to create agar plates by mixing 1 ml of nutrient broth containing bacteria with 15 ml of warm agar and poured into petri dishes and incubated for 24-48 hrs. at 37° C. Then, holes were punched into the agar and a dose response of previously purified ovotransferrin at 0%, 10% and 25% w/v in sterile water was placed in the holes. The plates were allowed to diffuse for 24 hour at 37° C. to check for zone of inhibition. Zones of inhibition were visualized by clearings in the agar where no bacteria grew. […] This is consistent with ovotransferrin in killing the bacteria that cause metritis. It was concluded that ovotransferrin of the invention is able to inhibit growth of the metritis causing bacteria in a dose dependent manner.

In experiment [2] the test system is Cows with clinical endometritis. Briefly: Intrauterine infusion of ovotransferrin solution in cows with clinical endometritis. It is filed as in vivo, cow.
Text: Cows with clinical endometritis (n=4) were identified based on the clinical signs, rectal temperature, score of mucus characteristics, total polymorph numbers, pH of uterine discharge, uterine swab analysis, and bacterial culture, along with healthy cows (control, n=4). Two hundred ml of a 5% ovotransferrin solution of the invention were infused intrauterine with a special pipette attached to a pump in the treatment group. Seven days later, all the above parameters were reexamined. Total number of polymorph in uterine discharge was counted using a hemocytometer, stained with Giemsa and Gram stain.
(§1) Cows with clinical endometritis (n=3) were identified based on the clinical signs, rectal temperature, score of mucus characteristics, total polymorph numbers, pH of uterine discharge, uterine swab analysis, and bacterial culture, along with healthy cows (control, n=3. Two hundred ml of a 5% ovotransferrin solution of the invention were infused intrauterine with a special pipette attached to a pump in the treatment group. Seven days later, all the above parameters were reexamined.
as §1, with “(n=4)” for “(n=3)”, “n=4).” for “n=3.”, “reexamined. Mucus score was 6 times higher in metritis affected cows than control values. […] This indicates the invention was efficacious for treatment metritis in cows.” for “reexamined.”
Cows with clinical endometritis (n=4) were identified based on the clinical signs, rectal temperature, score of mucus characteristics, total polymorph numbers, pH of uterine discharge, uterine swab analysis, and bacterial culture, along with healthy cows (control, n=4). Two hundred ml of a 5% ovotransferrin solution of the invention were infused intrauterine with a special pipette attached to a pump in the treatment group. Seven days later, all the above parameters were reexamined.

Experiment [3] has as its system infectious metritis in cows. Briefly: Clinical trial of ovotransferrin bolus to prevent infectious metritis in postpartum cows. The experiment is classed as in vivo, cow. Conditions: examined after 30 days. As to the method: (§2) A clinical trial was conducted to examine efficacy of the invention to prevent infectious metritis in cows. 10 gram of purified Ovotransferrin was mixed with 10 grams of binding agent to create a 20 gram total bolus with dimensions of 2 cm wide and 6 cm long. For N=5 cows from a herd known to have the standard metritis rate were selected that were 3 hours postpartum. Two boluses were inserted into the uterus and allowed to dissolve. The cows were monitor daily for any obvious signs of metritis. After 30 days, the cows were examined in detail for clinical signs of metritis. […] It would be expected that at least one of the cows of this group would have had metritis 10-12 days without the use of the invention.
as §2, with “A single bolus was” for “Two boluses were”
as §2, with “cows. 2.5” for “cows. 10”, “with 17.5” for “with 10”, “For N=7” for “For N=5”
A clinical trial was conducted to examine efficacy of the invention to prevent infectious metritis in cows. 2.5 gram of purified Ovotransferrin was mixed with 17.5 grams of binding agent to create a 20 gram total bolus with dimensions of 2 cm wide and 6 cm long. For N=7 cows from a herd known to have the standard metritis rate were selected that were 3 hours postpartum. A single bolus was inserted into the uterus and allowed to dissolve. The cows were monitor daily for any obvious signs of metritis. After 30 days, the cows were examined in detail for clinical signs of metritis. […]

B1: ovotransferrin (protein, UniProt P02789 20-705, looked up)
Ovotransferrin: APPKSVIRWCTISSPEEKKCNNLRDLTQQERISLTCVQKATYLDCIKAIANNEADAISLDGGQAFEAGLAPYKLKPIAAEVYEHTEGSTTSYYAVAVVKKGTEFTVNDLQGKTSCHTGLGRSAGWNIPIGTLLHRGAIEWEGIESGSVEQAVAKFFSASCVPGATIEQKLCRQCKGDPKTKCARNAPYSGYSGAFHCLKDGKGDVAFVKHTTVNENAPDQKDEYELLCLDGSRQPVDNYKTCNWARVAAHAVVARDDNKVEDIWSFLSKAQSDFGVDTKSDFHLFGPPGKKDPVLKDLLFKDSAIMLKRVPSLMDSQLYLGFEYYSAIQSMRKDQLTPSPRENRIQWCAVGKDEKSKCDRWSVVSNGDVECTVVDETKDCIIKIMKGEADAVALDGGLVYTAGVCGLVPVMAERYDDESQCSKTDERPASYFAVAVARKDSNVNWNNLKGKKSCHTAVGRTAGWVIPMGLIHNRTGTCNFDEYFSEGCAPGSPPNSRLCQLCQGSGGIPPEKCVASSHEKYFGYTGALRCLVEKGDVAFIQHSTVEENTGGKNKADWAKNLQMDDFELLCTDGRRANVMDYRECNLAEVPTHAVVVRPEKANKIRDLLERQEKRFGVNGSEKSKFMMFESQNKDLLFKDLTKCLFKVREGTTYKEFLGDKFYTVISSLKTCNPSDILQMCSFLEGK
notes: 12 to 13% of total egg white protein
Turning to B1, the zone of inhibition entry in experiment [1] (10% w/v ovotransferrin in sterile water in agar wells) is recorded as “a zone of inhibition was seen”; in experiment [1] (25% w/v ovotransferrin in sterile water in agar wells) it was “a larger zone”. The “Mean pH of uterine discharge” value in experiment [2] (one week after intrauterine infusion of 200 ml 5% solution, 8.8 before treatment, healthy control 6.8, n=3, p<0.05, FIG. 2) stood at 7.0. Also, the Rectal temperature in experiment [2] (one week after intrauterine infusion of 200 ml 5% solution, >40° C. before treatment, n=4, FIG. 1) was found to be 38.5 °C. For the same molecule, the Mucus score result in experiment [2] (seven days after intrauterine infusion of 200 ml 5% solution, 6 times control before treatment, n=4, FIG. 3) is recorded as “statistically significant decrease”. The “Total number of polymorph in uterine discharge” value in experiment [2] (seven days after intrauterine infusion of 200 ml 5% solution, more than 70 times control before treatment, n=4, FIG. 4) is “statistically significantly (p<0.01) reduced (2 and 4 times higher, respectively, compared with control)”. In addition, the “clinical signs of metritis” value in experiment [3] (single bolus of 2.5 g ovotransferrin in uterus 3 hours postpartum, N=7) is listed as “None of the cows had any signs of metritis”; in experiment [3] (single bolus of 10 g ovotransferrin in uterus 3 hours postpartum, N=5), “None of the cows had any signs of metritis”; in experiment [3] (two boluses of 2.5 g ovotransferrin (5 grams) in uterus 3 hours postpartum, N=7), “None of the cows had any signs of metritis”; in experiment [3] (two boluses of 10 g ovotransferrin (20 grams) in uterus 3 hours postpartum, N=5), “None of the cows had any signs of metritis”.

The record behind these values is patent US10905748B2, “Ovotransferrin treatment for the reproductive tract” (Vets Plus, Inc., priority 2018, dated 2021).
